The experiment deals with T1, H. polygyrus Alarmin Release Inhibitor (HpARI), recombinant mature 6-His and Myc-tagged protein (Heligmosomoides polygyrus).
T1 construct: HpARI, Heligmosomoides polygyrus; 251-aa protein including a 16-aa signal peptide; the mature protein (26 kDa, three CCP-like modules) was expressed; the CCP1/2 construct starts at amino acid 17; Codon-optimised synthetic gene cloned with AscI and NotI into pSecTAG2A; also called candidate D; not shown: myc, C-terminal, kept; His6, C-terminal, kept
T1 sequence (A0A3P7XL18 63-297): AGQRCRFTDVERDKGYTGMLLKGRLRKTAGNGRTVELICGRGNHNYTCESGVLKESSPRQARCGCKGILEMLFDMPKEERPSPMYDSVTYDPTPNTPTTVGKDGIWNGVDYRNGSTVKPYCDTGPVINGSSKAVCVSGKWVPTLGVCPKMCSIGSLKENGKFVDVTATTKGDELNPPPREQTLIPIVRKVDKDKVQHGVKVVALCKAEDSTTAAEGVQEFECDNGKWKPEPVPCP
In words: SPR; BIAcore T200; HpARI captured via its 6-His tag on a Ni2+-NTA chip to 400 RU; cytokine injected (mIL-33 6.2-167 nM, hIL-33 0.062-1.67 μM); 25°C; 10 mM NaH2PO4 pH 7.5, 150 mM NaCl, 50 μM EDTA, 0.05% surfactant P20; single kinetic titration, global 1:1 fit. As to conditions: both partners purified.

B1: recombinant murine IL-33, untreated (reduced, active form) (ligand)
chain: SIQGTSLLTQSPASLSTYNDQSVSFVLENGCYVINVDDSGKDQEQDQVLLRYYESPCPASQSGDGVDGKKLMVNMSPIKDTDIWLHANDKDYSVELQRGDVSPPEQAFFVLHKKSSDFVSFECKNLPGTYIGVKDNQLALVEEKDESCNNIMFKLSKI
modifications: reduced (free cysteines, no disulfides), active form; limits not given, taken as the usual commercial mature mouse IL-33 (Ser109-Ile266, UniProt chain 109-266)
What is called Kd is a measure of binding affinity in units of concentration. For orientation: stoichiometry N means the number of molecules, sites or subunits per partner or assembly. As for B1, the Kd amounted to 560 ± 100 pM and the “stoichiometry N” value came out at 1.
